Target: T1, Human recombinant His-tagged PALB2 (human, UniProt Q86YC2 1-1186)
T1 sequence: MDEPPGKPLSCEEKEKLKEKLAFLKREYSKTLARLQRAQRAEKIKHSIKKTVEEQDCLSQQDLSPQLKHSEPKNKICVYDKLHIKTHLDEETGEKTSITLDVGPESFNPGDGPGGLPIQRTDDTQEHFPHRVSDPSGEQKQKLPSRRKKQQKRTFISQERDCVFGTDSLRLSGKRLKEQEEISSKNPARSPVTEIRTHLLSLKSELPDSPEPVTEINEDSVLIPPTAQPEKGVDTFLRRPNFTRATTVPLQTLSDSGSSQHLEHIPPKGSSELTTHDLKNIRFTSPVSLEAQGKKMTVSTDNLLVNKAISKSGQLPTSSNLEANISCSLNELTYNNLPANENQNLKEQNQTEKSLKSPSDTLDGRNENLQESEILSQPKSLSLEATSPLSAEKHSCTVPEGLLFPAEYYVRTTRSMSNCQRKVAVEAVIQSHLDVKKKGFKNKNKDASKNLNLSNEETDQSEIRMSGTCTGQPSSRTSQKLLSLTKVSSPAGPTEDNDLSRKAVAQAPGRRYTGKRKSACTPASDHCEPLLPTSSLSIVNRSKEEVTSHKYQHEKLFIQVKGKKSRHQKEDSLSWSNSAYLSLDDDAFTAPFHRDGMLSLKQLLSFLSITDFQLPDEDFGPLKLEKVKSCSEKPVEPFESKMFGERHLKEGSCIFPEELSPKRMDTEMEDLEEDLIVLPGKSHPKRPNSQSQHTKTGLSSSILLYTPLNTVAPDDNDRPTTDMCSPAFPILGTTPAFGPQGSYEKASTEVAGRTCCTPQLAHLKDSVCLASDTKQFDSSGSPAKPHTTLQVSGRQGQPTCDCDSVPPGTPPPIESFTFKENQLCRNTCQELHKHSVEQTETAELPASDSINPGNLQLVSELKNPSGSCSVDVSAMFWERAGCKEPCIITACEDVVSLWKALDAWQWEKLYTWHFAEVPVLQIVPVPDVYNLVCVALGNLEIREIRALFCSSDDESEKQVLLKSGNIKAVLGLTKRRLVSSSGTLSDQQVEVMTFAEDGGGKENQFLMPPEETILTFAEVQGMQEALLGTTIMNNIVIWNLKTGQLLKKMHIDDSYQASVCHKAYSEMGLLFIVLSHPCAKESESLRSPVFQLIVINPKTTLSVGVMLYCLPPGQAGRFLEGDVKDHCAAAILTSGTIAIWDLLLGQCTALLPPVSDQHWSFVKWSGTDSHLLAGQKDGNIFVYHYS
Experiment: pull-down

binding result: binds
B1: BRCA2_(1-40)HA-His (domain or fragment)
chain: MPIGSKERPTFFEIFKTRCNKADLGPISLNWFEELSSEAP

From PMC9535758 (EMBO Reports, 2022)
